# According to the DeepSol protein solubility set:
# Assay: soluble on expression in E. coli; label from the status in PepcDB or PDB records
row,Sequence,soluble on expression in E. coli
1,MSLQITGVNQYHLEHRLEEPFHPTWIPGYPQSTHELELFEIETDAGITGYGASPSFAGGLDYETPLELFLTGEDPHNVDGILGKLETVNLVGPRPWHIEMALWDIIGKDAGKPVCELFGAEQRAIPAYASSGEIQPADERIDYVEQRIDEGFDAVKLRVTETDHIETVRAVRESFPDLTLMVDANKGWAVRVMEEPTEWSFSDALEFARELDAVGGVEWLEEPLHRHDYDGYARLRDAVDVNIAGGEFNNGIHHFREFVDRGSLDILQPDAALATGIRRAVDVARMGEANGLQFVPHTWTNAVGFAANLHVMTAVGSPWCEYPMEPPWTPDVWSFMLEDGFEHDDGVVRAPSKPGLGIEIPDKVLEDAGEGHHHHHH,soluble
2,MSLQLRHNRTLLENLADRQTMALQQFVDGDIHFIGSAANFFRSSTSDDWVRFHTFAEETLKGSQSLIALQWLVKVEPPQAETFTARMQQRFPEFTLYTVPKTGEIKYGFGTDDQAKYVLSDIYPLNYDNRKLLGFYSERERFKRILADIVVNRRPNVSDKVRLLQDGIDKSIVKDGMLVYHPVFSSEDDRSLLGVMVGVVRLSTYFEKLVQISVMEQDLDMRVIDTGFDSEDSPVLYQSPMWRADDEPKIERKLVLPNRDWVLEFELHQPINHSEELEHHHHHH,soluble
3,MSLQSLIGLMRPETGKKLENLNHFIQQFEKVLIAFSGGVDSSTLAAVCSNAGVEVLAVTVLSSVSPRREMEEAKRIAEELGVRHEFLKIDLMDEDFRRNDENRCYYCKRRVLSALVEEAKKRGIEVVLEGTNASDLSDHRPGYRAVRELDGVNSPWVEFGITKEEIREIARSMGYSFHDKPSMACLASRIPFGIEIDEEKLKMVDEAEEAVIELAGVKQVRVRNYDGVAVVEVAGDELRKLLNCAEKVRDKLKKIGFRAVLIDLEGYRSGKRLFKFEGHHHHHH,soluble
4,MSLRANCLVQTTEWSACSKTCGMGISTRVTNDNASCRLEKQSRLCMVRPCEADLEENIKKGKKCIRTPKISKPIKFELSGCTSMKTYRAKFCGVCTDGRCCTPHRTTTLPVEFKCPDGEVMKKNMMFIKTCACHYNCPGDNDIFESLYYRKMYGDMAEGHHHHHH,not soluble
5,MSLRAQSTNTIGVLVSRISNPFFAQLFDALERELNGYGFQVMVMQTHDDALAEQHFLDKLKQQQVDGVILASIENQQLVAQLSATYANQMVLLNEEATDIGIPMISLNHYQATKDALAYLYHQGHRRIAYATGGDFPSTHHGRSRTQAYLDFCEEQQLVVNNNWVFAQQHTIADGQALGKQLASLNPSDRPTAVFTNSDEVAVGVIDELQQQHFRVPDDMAVMGYDDQPFAAVAQVPLTTVRQPVAAMAQLAVDQLLHHLGRLQRPELAIDLSLDLIKRKSAEGHHHHHH,soluble
6,MSLRAYIPIDKYSLPEKFEIPLGNTNYIFEVDYNQTEKFFTVDLYDIDHTPIAIGERMVIDERLWQDIVDTRLPSADLVPMDESGASKEITFENFGIQVFLYIDDLPPNYNVPSLEREDN,not soluble
7,MSLRDTQTQLRNEMIYSVFVRNYSEAGNFAGVTADLQRIKDLGTDILWLLPINPIGEVNRKGTLGSPYAIKDYRGINPEYGTLADFKALTDRAHELGMKVMLDIVYNHTSPDSVLATEHPEWFYHDADGQLTNKVGDWSDVKDLDYGHHELWQYQIDTLLYWSQFVDGYRCDVAPLVPLDFWLEARKQVNAKYPETLWLAESAGSGFIEELRSQGYTGLSDSELYQAFDMTYDYDVFGDFKDYWQGRSTVERYVDLLQRQDATFPGNYVKMRFLENHDNARMMSLMHSKAEAVNNLTWIFMQRGIPLIYNGQEFLAEHQPSLFDRDTMVADRHGDVTPLIQKLVTIKQLPLLRAADYQLAVVEEGIVKITYRAAGEALTAWIPLKGQVTAVATKLAAGSYQNLLTDGPTEVVDGKLTVDGQPVLIKYVTNTAVTKVADQSNEGHHHHHH,soluble
8,MSLRIAIQGCSHGSLAQIYDVVNYYSSQTKNPIDLLLLCGDFQALRSKHDYASLAVPAKFKQLGSFHQYYSGERVAPVLTIVIGGNHEASNYMWELYHGGWLAPSIYYLGAAGSVYMNGLRIVGASGIYKGFDYRKGHFEKVPYNDKELRSIYHIREYDVEKLMHLTPSPSTIFLSHDWPTTIAHHGNKNALLKRKPFFRDENTLGSPPLLRLMNHFQPSYWFSAHLHVKFAALYEHQAPSHGPDVDGGAPLPLPAMSTAIAQTGNEGHHHHHH,not soluble
9,MSLRKLYTKELSVTGSAINHHRIFDSSAHFKGALTIKILPENTAMFNPLHESYCLPMDTNLFKINSIDVPIRINSTEEIEYIELEYRDLYTNSVELRSLSKKDFKIIDNPKSFLKKDQSVLKSHSNDFEEGSTIRYLAVTLQDIGFYQIKKIVDSKKLNLKIHQSHLVVPYCPIASITGTGSNDRCIGDSDNVSFEIQGVPPMKLAYSKIVNGQTFSYVDSSLQPEYFESPLQSSKSKQSFTQGELNDLKWGRNQPVNINLDSSITQDGKFAYKIDKITDGLGNVVDFTSLPEELKKREGHHHHHH,soluble
10,MSLRLADFGFTDGINEIIAITENEDGSWNAAPIGIIVEDSSSDTAKAKLYRNRTRANLERSGVLFANVTDDALVFAVSSFGNLNDDWYASPNPPIIKGAMAWCRFEAEMRSGVAHLKLTDGEIIEKRVRAINRGLSAVIEALVHATRYVAIKSDERRKELLERIHYYREIVQKCGSEREKRAFEIIMEKIGEGHHHHHH,soluble
11,MSLRQDILLNNNWNFRFSHQVQGDTRRVDLPHTWNAQDALAGKIDYKRGIGNYEKALYIRPEWKGKRLFLRFDGVNSIADVFINRKHIGEHRGGYGAFIFEITDLVKYGEKNSVLVRANNGEQLDIMPLVGDFNFYGGIYRDVHLLITDETCISPLDYASPGVYLVQEVVSPQEAKVCAKVNLSNRAADGTAELQVLVTDGTKVICKESRNVSLKQGADILEQLPLLIQKPRLWNGCEDPFMYQVSISLHKDGKQIDSVTQPLGLRYYHTDPDKGFFLNGKHLPLHGVCRHQDRAEVGNALRPQHHEEDVALMREMGVNAIRLAHYPQATYMYDLMDKHGIVTWAEIPFVGPGGYADKGFVDQASFRENGKQQLIELIRQHYNHPSICFWGLFNELKEVGDNPVEYVKELNALAKQEDPTRPTTSASNQDGNLNFITENIAWNRYDGWYGSTPKTLATFLDRTHKKHPELRIGISEYGAGASIYHQQDSLKQPSASGWWHPENWQTYYHMENWKIIAERPFVWGTFVWNMFDFGAAHRTEGDRPGINDKGLVTFDRKVRKDAFYFYKANWNKQEPMIYLAEKRCRLRYQPEQTFMAFTTAPEAELFVNGVSCGKQKADTYSTVVWKNVKLTSGENIIRVTTPGKKPLTDEVTVEYKEDREGHHHHHH,soluble
12,MSLRSTLAGTVRTQQGEIYLNGDADWSQIENWRARVTAKGSKVRITVPPMVRMDVSPDVVFEATPNLFTLDGRVDVPWARIVVHDLPESAVGVSSDVVMLNDNLQPEEPKTASIPINSNLIVHVGNNVRIDAFGLKARLTGDLNVVQDKQGLGLNGQINIPEGRFHAYGQDLIVRKGELLFSGPPDQPYLNIEAIRNPDATEDDVIAGVRVTGLADEPKAEIFSDPAMSQQAALSYLLRGQGLESDQSDSAAMTSMLIGLGVAQSGQIVGKIGETFGVSNLALDTQGVGDSSQVVVSGYVLPGLQVKYGVGIFDSIATLTLRYRLMPKLYLEAVSGVDQALDLLYQFEFEGHHHHHH,soluble
13,MSLRTSGSRLNSVRCASALTISGWKNNCVIEFDASGRIQSLREDSQSDVDLDLKGTVIAGIPNLHSHAHQKVITGLTEHRIAGQDDFWGWRELMYRANARLDPEQLQTIARYLYIDMLQKGYTSVAEFHYLHHQPDGTPYADLSEMSAQLLEAASEAGIAITLLPVLYCRGGFKDEPVQDSQHRFFNNPERYLALLESCHSLCANNPDRSLGFAAHSLRAVSPSAMSSTIEAAGPMLEGAPIHIHVAEQMREVNDCIEINGARPVAWLYDQCDVNDRWCLVHATHVDPQEQALLAQSGAIVGLCPTTEANLGDGIFPAAELMTNNGFLGVGSDSQVCTSPAEELRLLEYSQRFSLQRRTVLVPDEAGSNGRALTTAAIIGGNRARGEPLAGLQPGARGDLVEIGSDHVEFAGRSPDQVLDTWIFSGPDNPVQNVVAGGRHVVHDGVHPAMESASRAYREMVNALDLSEGHHHHHH,soluble
14,MSLRVYVTGNITVDETWSIPDIPKKGASIHGVKVSQDIGGKGANQAIILSRCGIETRLIAATGNDSNGAWIRQQIKNEPLMLLPDGHFNQHSDTSIILNSADGDNAIITTTAAADTFSLDEMIPHMADAVAGDILLQQGNFSLDKTRALFQYARSRGMTTVFNPSPVNPDFCHLWPLIDIAVVNESEAELLQPYGVKTLVITQGAAGAWLVQEGQRQFCPAVPAEALDTTGAGDTFLAVMLASALLRGVAPDALALAHASRAAAITVSRRGTLSAFPGSRELAALLTTDGAEGHHHHHH,soluble
15,MSLSALIINEYREQGGTAISFPEDISRARQKLFRFLDNRFDSDQYRENVRELTPAIMAVLPVEFRTRLAPQNDTMSLIASAMKECSEAKQAVLLNAPEHQKMKEVSEGIASLFRLMPEQVGPLMTMVTSMLGVIEGHHHHHH,not soluble
16,MSLSAQHAAHAQADTITALGAYLTTLAESHGQDEVAQAMCEIATQTLPRSCGELWQLSLDREGWYHGGGWQTGTVLPPQGYTLRATLPRGPTDELRLPLQAHGLTVGEVRAPYEGLESEQEQQLLQTLSTAAAISLSGHLLQRRVRHRNVRDPLTGLFNRRYLEDTLERELHRARRVNAGLVLIRLEVDTLDAFAAEHGSETADRLMQAMADAVHHAFRGSDVCCRAGDDGFGILLPDASLDNGAMRAEAVREELAELRIHQRGRPLGPVTVSAGVAAYPDHSSNRDLLLDAAESAVTRARDEGGDVLRIAELVSPPNPNQGHHHHHH,soluble
17,MSLSARSSHLSQPVVKSVLVYRNGDPFYAGRRVVIHEKKVSSFEVFLKEVTGGVQAPFGAVRNIYTPRTGHRIRKLDQIQSGGNYVAGGQEAFKKLNYLDIGEIKKRPMEVVNTEVKPVIHSRINVSARFRKPLQEPCTIFLIANGDLINPASRLLIPRKTLNQWDHVLQMVTEKITLRSGAVHRLYTLEGKLVESGAELENGQFYVAVGRDKFKKLPYSELLFDKSTMREGHHHHHH,not soluble
18,MSLSDDIKVLGISGSLRSGSYNSAALQEAIGLVPPGMSIELADISGIPLYNEDVYALGFPPAVERFREQIRAADALLFATPEYNYSMAGVLKNAIDWASRPPEQPFSGKPAAILGASAGRFGTARAQYHLRQTLVFLDVHPLNKPEVMISSAQNAFDAQGRLLDDKARELIQQQLQALQLWVREGGSHHHHHH,soluble
19,MSLSDLDRAIAQLRACRLIPEAQVRELCYKARELLIEEGNVVCVDAPVTICGDIHGQFHDLMELFRVGGDVPDTNYLFMGDFVDRGFYSLESEGHHHHHH,not soluble
20,MSLSELHALLTFPERPISQSYYVPKLQHFLKSGIPATYTLEQVAAFEHEEKNRNGDKEFRESTDDNKTSNTTPLHVLARSLPLDIKDEELQVVMDMMNILFEYGAGWNFIDYEDKTVGDLFLERNQSRESPLYRRLVEAGVSAELLLRKLNGGDVEFLDTDELIGIEPEESVQTAVDGQKEESVGSDDDATAANQQVYLKTELEYKDDALITKENKDGVMMDWETKIMELASETLFPDPEATNSATILNIGFGMGIIDTFIQARKPYRHYICEAHPDVLAKMKMDGWYEKDNVVILEGRWQDTLNNLLDKGEVFFDGIYYDTFSEHYQDILDLYDVVVGLIKPEGVFSFFNGLGADRSLCYDVYKEIVEIDVATYGMKCDYTRYSLDEQLPDWNDVKRSYFNCNYYYHPRITFAEGHHHHHH,not soluble
